Positions count from the first letter of the chain named. Numbers in names are those of the source.
B1: E35D/M43I/M47L/V68M (protein, UniProt P33681 35-288, looked up, variant E35D M43I M47L V68M)
T-lymphocyte activation …: VIHVTKEVKEVATLSCGHNVSVEELAQTRIYWQKDKKMVLTMISGDLNIWPEYKNRTIFDITNNLSIMILALRPSDEGTYECVVLKYEKDAFKREHLAEVTLSVKADFPTPSISDFEIPTSNIRRIICSTSGGFPEPHLSWLENGEELNAINTTVSQDPETELYAVSSKLDFNMTTNHSFMCLIKYGHLRVNQTFNWNTTKQEHFPDNLLPSWAITLISVNGIFVICCLTYCFAPRCRERRRNERLRRESVRPV
B2: T13R/Q33R/E35D/M38I/M47L/V68M/E95V/L97Q (protein, UniProt P33681 35-288, looked up, variant T13R Q33R E35D M38I M47L V68M E95V L97Q)
T-lymphocyte activation …: B1 T-lymphocyte activation … with T13R, Q33R, M38I, I43M, E95V, L97Q
B3: H18Y/E35D/M38I/M47L/V68M/L85M (protein, UniProt P33681 35-288, looked up, variant H18Y E35D M38I M47L V68M L85M)
T-lymphocyte activation …: B1 T-lymphocyte activation … with H18Y, M38I, I43M, L85M
B4: T13R/Q33R/E35D/M38I/M47L/V68M (protein, UniProt P33681 35-288, looked up, variant T13R Q33R E35D M38I M47L V68M)
T-lymphocyte activation …: B1 T-lymphocyte activation … with T13R, Q33R, M38I, I43M
B5: Q33R/E35D/M38I/M47L/V68M (protein, UniProt P33681 35-288, looked up, variant Q33R E35D M38I M47L V68M)
T-lymphocyte activation …: B1 T-lymphocyte activation … with Q33R, M38I, I43M
B6: H18Y/E35D/V68M/T79M/L85M (protein, UniProt P33681 35-288, looked up, variant H18Y E35D V68M T79M L85M)
T-lymphocyte activation …: B1 T-lymphocyte activation … with H18Y, I43M, L47M, T79M, L85M
B7: E35D/M47L/Y53F/V68M/A71G/K93R/E95V (protein, UniProt P33681 35-288, looked up, variant E35D M47L Y53F V68M A71G K93R E95V)
T-lymphocyte activation …: B1 T-lymphocyte activation … with I43M, Y53F, A71G, K93R, E95V
B8: T13R/Q33L/E35D/M47V/T62S/V68M/L85M (protein, UniProt P33681 35-288, looked up, variant T13R Q33L E35D M47V T62S V68M L85M)
T-lymphocyte activation …: B1 T-lymphocyte activation … with T13R, Q33L, I43M, L47V, T62S, L85M
B9: H18Y/E35D/M47L/Y53F/V68M/A71G (protein, UniProt P33681 35-288, looked up, variant H18Y E35D M47L Y53F V68M A71G)
T-lymphocyte activation …: B1 T-lymphocyte activation … with H18Y, I43M, Y53F, A71G
B10: T13R/Q33R/E35D/M38I/M47L/V68M/L85M (protein, UniProt P33681 35-288, looked up, variant T13R Q33R E35D M38I M47L V68M L85M)
T-lymphocyte activation …: B1 T-lymphocyte activation … with T13R, Q33R, M38I, I43M, L85M
B11: H18Y/V22D/E35D/M47V/N48K/V68M (protein, UniProt P33681 35-288, looked up, variant H18Y V22D E35D M47V N48K V68M)
T-lymphocyte activation …: B1 T-lymphocyte activation … with H18Y, V22D, I43M, L47V, N48K
B12: T13R/Q33L/E35D/M47L/V68M/L85M (protein, UniProt P33681 35-288, looked up, variant T13R Q33L E35D M47L V68M L85M)
T-lymphocyte activation …: B1 T-lymphocyte activation … with T13R, Q33L, I43M, L85M
B13: Q27L/E35D/M47V/I61V/L85M (protein)
chain: VIHVTKEVKEVATLSCGHNVSVEELALTRIYWQKDKKMVLTMMSGDVNIWPEYKNRTIFDVTNNLSIVILALRPSDEGTYECVVMKYEKDAFKREHLAEVTLSVKAD
B14: E35D/T41S/N48T (protein)
chain: B13 chain with L27Q, T41S, V47M, N48T, V61I, M85L

Tests used:
CD28 [1] = target: T1, CD28 (Homo sapiens, UniProt P10747); assay: Flow binding to Jurkat/IL2 reporter cells (CD28); design: host or cells: Jurkat cells expressing an IL-2-luciferase reporter; settings: 33.3 nM; for CD28 MFI at 33.3 nM: Jurkats (CD28)
In short: (§1)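 Flow cytometry on transfected CHO cells or CD28+ Jurkat/IL2 reporter cells, blocked 20 min in PBS/1% BSA/0.1% azide. Fusion protein 45 min on ice; PE anti-human Fc 1:150, 30 min on ice; fixed in 2% formaldehyde. Read-out PE MFI, EC50 calculated.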

huPD-L1 = huPD-L1 (Homo sapiens, UniProt Q9NZQ7); assay: Flow binding to CHO cells stably expressing PD-L1; design: huCTLA4 and huPD-L1, full-length mammalian surface expression constructs were generated; expressed in transfected cells; host or cells: CHO cells, lentiviral transduction, sorted to >98% purity; settings: for PD-L1 Fold change to WT CD80 / PD-L1 MFI at 33.3 nM: 33.3 nM; for PD-L1 MFI at 33.3 nM: CHO cells stably expressing PD-L1
Sequence of huPD-L1 (Q9NZQ7 19-290): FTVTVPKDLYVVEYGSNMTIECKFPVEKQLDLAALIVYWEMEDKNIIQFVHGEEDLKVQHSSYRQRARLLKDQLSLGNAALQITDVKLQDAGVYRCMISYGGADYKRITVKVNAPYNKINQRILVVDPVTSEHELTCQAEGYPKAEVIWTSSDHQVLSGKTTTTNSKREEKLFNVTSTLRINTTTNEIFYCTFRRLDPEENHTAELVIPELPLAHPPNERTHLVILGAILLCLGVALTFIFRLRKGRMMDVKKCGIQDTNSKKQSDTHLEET
In short: as §1

CD28 [2] = target: T1, CD28; assay: Jurkat/IL2 + CHO/OKT3 +/- PD-L1 reporter assay: PD-L1-dependent CD28 costimulation; format: cell-based; design: host or cells: Jurkat cells expressing an IL-2-luciferase reporter; settings: Jurkat/IL2 + CHO/OKT3/PD-L1, 5.0 nM
In short: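 Jurkat reporter cells (100,000/well) preincubated 15 min at room temperature with test protein, then cocultured 5 h at 37 °C with CHO aAPCs bearing anti-CD3 scFv (OKT3) with or without PD-L1. Luciferase luminescence (RLU) read after lysis-substrate addition.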

huCTLA4 = huCTLA4 (Homo sapiens, UniProt P16410); assay: Flow binding to CHO cells stably expressing CTLA4; design: huCTLA4 and huPD-L1, full-length mammalian surface expression constructs were generated; expressed in transfected cells; host or cells: CHO cells, lentiviral transduction, sorted to >98% purity; settings: 33.3 nM; for CTLA4 MFI at 33.3 nM: CHO cells stably expressing CTLA4
Sequence of huCTLA4 (P16410 36-223): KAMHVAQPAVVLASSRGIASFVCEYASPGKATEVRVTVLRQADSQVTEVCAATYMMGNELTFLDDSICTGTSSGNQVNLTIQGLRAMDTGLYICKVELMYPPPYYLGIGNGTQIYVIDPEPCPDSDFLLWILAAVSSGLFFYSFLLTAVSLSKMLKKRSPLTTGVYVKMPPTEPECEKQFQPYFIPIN
In short: as §1

[3] = Table E11, listed as WT CD80 ECD-Fc = 1.0
[4] = Table E16, listed as CD80 WT IgV-Fc = 1.0
[5] = Table E10, relative to CD80 WT IgV-Fc
[6] = Table E10, binding to PD-L1 compared to binding to CD28

| CD28 Fold change to WT CD80 (CD28 [1]; [3]) | CD28 MFI at 33.3 nM (CD28 [1]; Table E11) | PD-L1 Fold change to WT CD80 (huPD-L1; [3]) | PD-L1 MFI at 33.3 nM (huPD-L1; Table E11) | Ratio of PDL1:CD28 (huPD-L1; Table E11, MFI at 33.3 nM) | Fold Increase over WT CD80-IgV-Fe (CD28 [2]; Table E13) | Relative Luciferase Units (RLU), CD80 Cone 5.0 nM (CD28 [2]; Table E13) [RLU] | CTLA4 Fold change to WT CD80 (huCTLA4; [3]) | CTLA4 MFI at 33.3 nM (huCTLA4; Table E11) | other results | Molecule |
| --- | --- | --- | --- | --- | --- | --- | --- | --- | --- | --- |
| 48.3 | 1517 | 328.4 | 16912 | 11.1 | 2.7 | 1072 | 9.3 | 16243 |  | B1 |
| 35.4 | 1111 | 372.0 | 19157 | 17.2 | 2.5 | 993 | 11.8 | 20652 |  | B2 |
| 0.5 | 16.7 | 69.7 | 3589 | 214.9 | 0.5 | 198 | 0.1 | 139 |  | B3 |
| 0.4 | 13.8 | 87.0 | 4482 | 324.8 | 0.4 | 152 | 0.1 | 193 |  | B4 |
| 0.5 | 15 | 320.4 | 16502 | 1107.5 | 0.4 | 147 | 0.1 | 107 |  | B5 |
| 33.2 | 1041 | 289.5 | 14907 | 14.3 | 2.9 | 1161 | 9.3 | 16287 |  | B6 |
| 12.2 | 383 | 485.9 | 25024 | 65.3 | 3.9 | 1546 | 9.1 | 16013 |  | B7 |
| 0.5 | 16 | 77.0 | 3968 | 248.0 | 0.3 | 136 | 0.1 | 105 |  | B8 |
| 0.5 | 15.7 | 99.1 | 5105 | 325.2 | 0.3 | 120 | 0.1 | 146 | CD28 Fold change to WT CD80 (CD28 [1]; [4]): 11.6; CD28 MFI at 33.3 nM (CD28 [1]; Table E16, consensus variants): 478; PD-L1 Fold change to WT CD80 (huPD-L1; [4]): 135.1; Ratio of PDL1:CD28 (huPD-L1; Table E16, MFI at 33.3 nM): 20.0; PD-L1 MFI at 33.3 nM (huPD-L1; Table E16, consensus variants): 9576; Fold Increase over WT CD80-IgV-Fe (CD28 [2]; Table E17): 5.7; Relative Luciferase Units (RLU), CD80 Cone 5.0 nM (CD28 [2]; Table E17, consensus variants): 2277 RLU; CTLA4 Fold change to WT CD80 (huCTLA4; [4]): 18.7; CTLA4 MFI at 33.3 nM (huCTLA4; Table E16, consensus variants): 19528 | B9 |
| 0.5 | 14.2 | 21.5 | 1106 | 77.9 | 0.4 | 153 | 12.6 | 22011 |  | B10 |
| 8.2 | 257 | 249.8 | 12867 | 50.1 | 2.7 | 1072 | 9.0 | 15798 |  | B11 |
| 0.5 | 15.7 | 62.7 | 3228 | 205.6 | 0.4 | 153 | 0.1 | 141 |  | B12 |
|  |  |  |  |  |  |  |  |  | CD28 MFI at 33.3 nM (CD28 [1]; Table E10): 230; CD28 Fold change to WT CD80 (CD28 [1]; [5]): 3.5; PD-L1 MFI at 33.3 nM (huPD-L1; Table E10): 2705; PD-L1 Fold change to WT CD80 (huPD-L1; [5]): 38.5; Ratio of PDL1:CD28 (huPD-L1; [6]): 12; Fold Increase over WT CD80-IgV-Fe (CD28 [2]; Table E12): 2.9; Relative Luciferase Units (RLU), CD80 Cone 5.0 nM (CD28 [2]; Table E12): 1166 RLU; CTLA4 MFI at 33.3 nM (huCTLA4; Table E10): 27881; CTLA4 Fold change to WT CD80 (huCTLA4; [5]): 14.6 | B13 |
|  |  |  |  |  |  |  |  |  | CD28 MFI at 33.3 nM (CD28 [1]; Table E10): 72.4; CD28 Fold change to WT CD80 (CD28 [1]; [5]): 1.1; PD-L1 MFI at 33.3 nM (huPD-L1; Table E10): 2191; PD-L1 Fold change to WT CD80 (huPD-L1; [5]): 31.2; Ratio of PDL1:CD28 (huPD-L1; [6]): 30; Fold Increase over WT CD80-IgV-Fe (CD28 [2]; Table E12): 2.8; Relative Luciferase Units (RLU), CD80 Cone 5.0 nM (CD28 [2]; Table E12): 1136 RLU; CTLA4 MFI at 33.3 nM (huCTLA4; Table E10): 30262; CTLA4 Fold change to WT CD80 (huCTLA4; [5]): 15.8 | B14 |

Source: patent US20220177587A1, “METHODS AND USES OF VARIANT CD80 FUSION PROTEINS AND RELATED CONSTRUCTS” (Alpine Immune Sciences, Inc., priority 2018, published 2022)
